# Test results taken from patent US20130116412.
# What was measured:
# Ac-GFPG-NH2 = system: T1, Ac-GFPG-NH2
# T1 sequence: GFPG
# [1] = system: GST-(PPG)5, fusion of glutathione S-transferase and (Pro-Pro-Gly)5 with an intervening thrombin cleavage site
# Chain of GST-(PPG)5, fusion of glutathione S-transferase and (Pro-Pro-Gly)5 with an intervening thrombin cleavage site (chain, as listed by the source): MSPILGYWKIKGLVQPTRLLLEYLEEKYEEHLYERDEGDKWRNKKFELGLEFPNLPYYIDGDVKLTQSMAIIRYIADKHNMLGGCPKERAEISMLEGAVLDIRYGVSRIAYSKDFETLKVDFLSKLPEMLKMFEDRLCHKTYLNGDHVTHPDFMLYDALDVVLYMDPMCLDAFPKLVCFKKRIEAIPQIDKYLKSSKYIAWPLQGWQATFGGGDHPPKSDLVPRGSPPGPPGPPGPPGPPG
substance,measurement,setting,value
"human prolyl-4-hydroxylase (P4H), full-length tetramer produced from plasmid pBK1.PDI1.P4H7","in vitro hydroxylation of proline, MALDI-TOF / LC-MS",Ac-GFPG-NH2,The positive control showed that the proline residue in Ac-GFPG-NH2 was hydroxylated.
same,"in vitro hydroxylation of proline residues, MALDI-TOF of the cleaved peptide",[1],up to 3 hydroxyproline residues were produced in the (PPG)5 peptide after incubation with P4H
